Source: article PMC8578170, “Electron carriers involved in autotrophic and heterotrophic acetogenesis in the thermophilic bacterium Thermoanaerobacter kivui” (Extremophiles, 2021)

Legend:
His-MetFV [1] = target: T1, His-MetFV (Thermoanaerobacter kivui, UniProt A0A097ATJ3); test: thin-layer chromatography of flavin released from purified complex; type: binding; conditions: 10 µM FMN in purification buffers unless otherwise specified
T1 construct: gene metF; with Methylenetetrahydrofolate reductase subunit MetV
T1 sequence (A0A097ATJ3 1-291): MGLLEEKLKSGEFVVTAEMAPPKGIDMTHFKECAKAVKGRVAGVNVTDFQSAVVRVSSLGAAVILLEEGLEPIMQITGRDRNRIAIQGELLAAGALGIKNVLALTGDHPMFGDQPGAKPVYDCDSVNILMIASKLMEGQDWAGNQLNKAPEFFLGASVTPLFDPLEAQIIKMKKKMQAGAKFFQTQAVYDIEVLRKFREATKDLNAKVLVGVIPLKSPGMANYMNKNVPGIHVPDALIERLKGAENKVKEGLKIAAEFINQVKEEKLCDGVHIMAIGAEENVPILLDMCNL
T1 sequence (A0A097ATJ4 1-216 partner): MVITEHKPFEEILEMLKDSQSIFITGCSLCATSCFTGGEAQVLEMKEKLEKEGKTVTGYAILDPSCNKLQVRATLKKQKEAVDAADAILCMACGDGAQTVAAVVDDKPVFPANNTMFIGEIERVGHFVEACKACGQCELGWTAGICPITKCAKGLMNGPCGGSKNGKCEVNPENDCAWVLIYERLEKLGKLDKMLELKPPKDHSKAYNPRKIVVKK

His-MetFV [2] = target: T1, His-MetFV; test: spectrophotometric methyl-THF:benzyl viologen oxidoreductase assay, […] nm; type: biochemical; conditions: 1 mM methyl-THF, 10 mM benzyl viologen; 50 mM KPi, 20 mM ascorbate, pH 7, 66 °C
His-MetFV [3] = target: T1, His-MetFV; test: spectrophotometric reduced methyl viologen:methylene-THF oxidoreductase assay, […] nm; type: biochemical; conditions: methylene-THF formed from 0.5 mM THF and 1.5 mM formaldehyde; 10 mM methyl viologen, dithionite; 50 mM KPi, 20 mM ascorbate, pH 7, 66 °C
[4] = target: His-HydABC, electron-bifurcating hydrogenase complex of T. kivui (Thermoanaerobacter kivui); test: SEC; analytical size exclusion chromatography on a calibrated Superdex 200 column with size standards; buffer B (50 mM Tris/HCl, 150 mM NaCl, 20 mM MgSO4, 2 mM DTE, 20% glycerol, pH 7.5)
[5] = target: His-HydABC, electron-bifurcating hydrogenase complex of T. kivui (Thermoanaerobacter kivui)
purified protein = substrate: NC(=O)c1ccc[n+]([C@@H]2O[C@H](COP(=O)(O)OP(=O)(O)OC[C@H]3O[C@@H](n4cnc5c(N)ncnc54)[C@H](OP(=O)(O)O)[C@@H]3O)[C@@H](O)[C@H]2O)c1; test: purified protein; conditions: H2 and C. pasteurianum ferredoxin as co-substrates, 5 µM FMN, 50 mM EPPS, 10 mM NaCl, pH 8, 66 °C
[6] = substrate: Cc1cc2nc3c(=O)[nH]c(=O)nc-3n(C[C@H](O)[C@H](O)[C@H](O)COP(=O)(O)O)c2cc1C; test: spectrophotometric H2:Fd/NADP+ oxidoreductase assay; type: biochemical, Thermoanaerobacter kivui; conditions: H2, ferredoxin and NADP+ as co-substrates, pH 8, 66 °C, FMN stimulation of activity, error exceeds the value, varied: cofactor
[7] = target: the molecule itself; test: SEC; analytical size exclusion chromatography on a calibrated Superdex 200 column with size standards; buffer B (50 mM Tris/HCl, 150 mM NaCl, 20 mM MgSO4, 2 mM DTE, 20% glycerol, pH 7.5)

Question: For `Cc1cc2nc3c(=O)[nH]c(=O)nc-3n(C[C@H](O)[C@H](O)[C@H](O)COP(=O)(O)O)c2cc1C` [FMN], which “thin-layer chromatography of flavin released from purified complex” value (His-MetFV [1]) is on record?
Answer: Its value is “subsequent separation of the flavin-containing supernatant by thin-layer chromatography (TLC), FMN could be detected”.

Question: How did the “spectrophotometric methyl-THF:benzyl viologen oxidoreductase assay, 600 nm” value (His-MetFV [2]) turn out when `CN1c2c(nc(N)[nH]c2=O)NC[C@@H]1CNc1ccc(C(=O)N[C@@H](CCC(=O)O)C(=O)O)cc1` [methyl-THF] was run?
Answer: The value was “oxidation of methyl-THF was not coupled to NAD^+, NADP^+ or Fd reduction”.

Question: `Nc1nc2c(c(=O)[nH]1)N1CN(c3ccc(C(=O)N[C@@H](CCC(=O)O)C(=O)O)cc3)C[C@H]1CN2` [methylene-THF] was tested. Which “spectrophotometric reduced methyl viologen:methylene-THF oxidoreductase assay, 6” value (His-MetFV [3]) did it give?
Answer: Its value is “The purified MetFV complex catalyzed the reduction of methylene-THF with reduced MV”.

Question: “His-HydABC, electron-bifurcating hydrogenase complex of T. kivui (from UniProt A0A097ATG4 1-630; A0A097ATI0 1-170)” was tested. Which stoichiometry N [4] did it give?
Answer: The stoichiometry N was 2.

B1: ferredoxin isolated from Clostridium pasteurianum (natural protein)
chain: MAYKIADSCVSCGACASECPVNAISQGDSIFVIDADTCIDCGNCANVCPVGAPVQE
Question: How did the Km for Fd in the NADP+-dependent H2:Fd oxidoreductase assay (Fd 0–200 µM, 66 °C) [5] turn out when B1 was run?
Answer: The Km for Fd in the NADP+-dependent H2:Fd oxidoreductase assay (Fd 0–200 µM, 66 °C) was 13.6 µM.

B2: His-HydABC (Thermoanaerobacter kivui) (protein)
chain: MVKLKSIQELENLREKIKEAKKKEKIVIRICGGTGCRASGSLAVRDELVKVLKREGFANVDVNLSSDCLENTSEVHVKMTGCQGFCAQGPLMTIEPLGVFYVGVKPEDVEEIVEKSIKKNEIIERLLYHDPATGKTYVKRDENPFYAKQTRLVLKHCGTVDPASVYDYIAEGGYSAIAKALTMDRKQIIDEVIKSGLRGRGGAGFPTGEKWLGAYKNQSPKKYIICNGDEGDPGAFMDRSVMEGDPHKVIEGMMIGAYAIGSDEGYIYVRAEYPLAVQMLRKAIEECEKLGLLGDNILGTGFSFRLHVREGAGAFVCGESTALTYSIEGKRGMPRVRPPRTNECGLWEMPTVLNNVETFACIPEIILNGGEWFASIGTPTSTGTKIFALSGKVNRTGLVEVPMGLKLRELIFDIGGGIANNKKFKAVQLGGPSGGCVPESQLDLPIDFDSLSKAGAIMGSGGVVVVDEDTCMVDFAKFFTNFIVEESCGKCIPCREGNKKMLEILERITEGKGKEGDIELLEELGDVIISASLCGLGKTAPNPVLSTIKHFRDEYEAHIRDKKCPAGACQALAAYKIDPGKCIGCGKCVKVCPVGAISGEKKKPHVIDQSKCIKCGACAENCPKGAIYKG
notes: HydABC complex, 10xHis tag at 3' end of hydA, plasmid pMU131, produced homologously in T. kivui; Ni-NTA and Superdex 200; 348 kDa, dimer of HydABC (HydA 64, HydB 68, HydC 18 kDa); with Electron-bifurcating [FeFe] hydrogenase subunit HydA; Electron-bifurcating hydrogenase subunit HydC
Question: With B2 as the molecule, how does the Km (purified protein) read?
Answer: Its Km is 48.8 ± 10.6 µM.

Question: And the Km [6]?
Answer: Its Km is 0.3 ± 0.8 µM.

B3: His-MetFV, methylene-THF reductase complex of T. kivui (complex, Thermoanaerobacter kivui)
chain 1: T1 sequence (A0A097ATJ3 1-291)
chain 2: T1 sequence (A0A097ATJ4 1-216 partner)
notes: One MetFV heterodimer; By analytical SEC the purified complex (174 kDa) is consistent with three MetFV heterodimers; It contains iron-sulfur clusters and FMN; also called MTHFR; MetFV heterodimer; source: T. kivui (DSM 2030), plasmid pMU131_His-metFV, produced homologously, purified (Ni2+-NTA, Superdex 200)
Question: How did the “stoichiometry N” value [7] turn out when B3 was run?
Answer: The value was 3.
